What was measured:
[1] = target: human plasma-derived Factor IXa (human, UniProt P00740 47-191; P00740 227-461); test: cell-based or functional assay
[2] = target: T1, wild-type FIX with C-terminal His-tag (human, UniProt P00740 47-461); test: SPR (Biacore T200), wild-type FIX captured via His-tag, 20 µM OA antibody (reference)
T1 construct: also called WT
Description: (§1) SPR analyses were carried out on Biacore T200 instruments (Biacore AB, Uppsala, Sweden). For the experiments on the T200 instrument the following conditions were applied: measurements were conducted at a temperature of 25° C. Anti-His antibody at 25 μg/ml (R&D Systems, catalogue #MAB050) was immobilized on a CM5 sensor chip using standard amine coupling chemistry. […] at 25 nM were injected at a flow rate of 10 μl/min for 1 min and were captured via their His-tag by the immobilized anti-His antibody. […] The running buffer used was 20 mM Tris, 150 mM NaCl, 5 mM CaCl₂, 0.05% Tween-20, 10 mg/ml BSA, pH 7.4. This was also used for dilution of anti-FIX antibody and FIX samples. Regeneration of the chip was achieved using 10 mM Glycine pH 2.0. Binding data were analysed according to a 1:1 model using BiaEvaluation 4.1 supplied by the manufacturer (Biacore AB, Uppsala, Sweden).
(§2) where Rmax_FIXvar and Rmax_FIXwt represent capture level (RU) of FIX variant and wild-type FIX, respectively, and where R_{max_Ab,FIX_var} and R_{max_Ab,FIX_wt} represent Rmax (RU) of the 20 μM antibody to captured FIX variant and wild-type FIX, respectively.

[3] = target: FIX T343A with C-terminal His-tag (human, UniProt P00740 47-461); test: SPR (Biacore T200), FIX variant captured via His-tag, 20 µM OA antibody
Description: as §1, §2

[4] = target: FIX R333A with C-terminal His-tag (human, UniProt P00740 47-461); test: as above
Description: as §1, §2

[5] = target: FIX K341E with C-terminal His-tag (human, UniProt P00740 47-461); test: as above
Description: as §1, §2

[6] = target: FIX K301A with C-terminal His-tag (human, UniProt P00740 47-461); test: as above
Description: as §1, §2

[7] = target: FIX N346A with C-terminal His-tag (human, UniProt P00740 47-461); test: as above
Description: as §1, §2

[8] = target: FIX K341A with C-terminal His-tag (human, UniProt P00740 47-461); test: as above
Description: as §1, §2

[9] = target: FIX T343I with C-terminal His-tag (human, UniProt P00740 47-461); test: as above
Description: as §1, §2

[10] = target: FIX D332A with C-terminal His-tag (human, UniProt P00740 47-461); test: as above
Description: as §1, §2

[11] = target: FIX A334L with C-terminal His-tag (human, UniProt P00740 47-461); test: as above
Description: as §1, §2

[12] = target: FIX R338A with C-terminal His-tag (human, UniProt P00740 47-461); test: as above
Description: as §1, §2

[13] = target: FIX L337A with C-terminal His-tag (human, UniProt P00740 47-461); test: as above
Description: as §1, §2

[14] = target: FIX S339L with C-terminal His-tag (human, UniProt P00740 47-461); test: as above
Description: as §1, §2

[15] = target: FIX T340A with C-terminal His-tag (human, UniProt P00740 47-461); test: as above
Description: as §1, §2

[16] = target: FIX D332S with C-terminal His-tag (human, UniProt P00740 47-461); test: as above
Description: as §1, §2

[17] = target: FIX N346Q with C-terminal His-tag (human, UniProt P00740 47-461); test: as above
Description: as §1, §2

[18] = target: FIX T335A with C-terminal His-tag (human, UniProt P00740 47-461); test: as above
Description: as §1, §2

FIX K301A with C-terminal His-tag, sequence (P00740 other isoform, or with tags, fused parts or gaps K301A K301A limits assumed): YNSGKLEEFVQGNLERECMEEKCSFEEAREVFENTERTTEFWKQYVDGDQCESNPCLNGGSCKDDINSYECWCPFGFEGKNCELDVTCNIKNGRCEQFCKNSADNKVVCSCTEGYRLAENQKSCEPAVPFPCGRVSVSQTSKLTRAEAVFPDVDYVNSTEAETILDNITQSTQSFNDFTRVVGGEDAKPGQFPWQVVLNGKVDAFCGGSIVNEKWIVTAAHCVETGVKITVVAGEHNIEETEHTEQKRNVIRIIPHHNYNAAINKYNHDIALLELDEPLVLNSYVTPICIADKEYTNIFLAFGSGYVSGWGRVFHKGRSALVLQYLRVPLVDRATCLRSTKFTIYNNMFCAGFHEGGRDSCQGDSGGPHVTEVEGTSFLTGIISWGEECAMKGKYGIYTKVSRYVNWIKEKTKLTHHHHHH
FIX N346A with C-terminal His-tag, sequence (P00740 other isoform, or with tags, fused parts or gaps N346A N346A limits assumed): as the sequence (P00740 other isoform, or with tags, fused parts or gaps K301A K301A limits assumed) above, with A301K, N346A counted along it
FIX R338A with C-terminal His-tag, sequence (P00740 other isoform, or with tags, fused parts or gaps R338A R338A limits assumed): as the sequence (P00740 other isoform, or with tags, fused parts or gaps K301A K301A limits assumed) above, with A301K, R338A counted along it
FIX K341A with C-terminal His-tag, sequence (P00740 other isoform, or with tags, fused parts or gaps K341A K341A limits assumed): as the sequence (P00740 other isoform, or with tags, fused parts or gaps K301A K301A limits assumed) above, with A301K, K341A counted along it
FIX K341E with C-terminal His-tag, sequence (P00740 other isoform, or with tags, fused parts or gaps K341E K341E limits assumed): as the sequence (P00740 other isoform, or with tags, fused parts or gaps K301A K301A limits assumed) above, with A301K, K341E counted along it
FIX L337A with C-terminal His-tag, sequence (P00740 other isoform, or with tags, fused parts or gaps L337A L337A limits assumed): as the sequence (P00740 other isoform, or with tags, fused parts or gaps K301A K301A limits assumed) above, with A301K, L337A counted along it
FIX R333A with C-terminal His-tag, sequence (P00740 other isoform, or with tags, fused parts or gaps R333A R333A limits assumed): as the sequence (P00740 other isoform, or with tags, fused parts or gaps K301A K301A limits assumed) above, with A301K, R333A counted along it
FIX D332A with C-terminal His-tag, sequence (P00740 other isoform, or with tags, fused parts or gaps D332A D332A limits assumed): as the sequence (P00740 other isoform, or with tags, fused parts or gaps K301A K301A limits assumed) above, with A301K, D332A counted along it
FIX T335A with C-terminal His-tag, sequence (P00740 other isoform, or with tags, fused parts or gaps T335A T335A limits assumed): as the sequence (P00740 other isoform, or with tags, fused parts or gaps K301A K301A limits assumed) above, with A301K, T335A counted along it
FIX A334L with C-terminal His-tag, sequence (P00740 other isoform, or with tags, fused parts or gaps A334L A334L limits assumed): as the sequence (P00740 other isoform, or with tags, fused parts or gaps K301A K301A limits assumed) above, with A301K, A334L counted along it
FIX T340A with C-terminal His-tag, sequence (P00740 other isoform, or with tags, fused parts or gaps T340A T340A limits assumed): as the sequence (P00740 other isoform, or with tags, fused parts or gaps K301A K301A limits assumed) above, with A301K, T340A counted along it
FIX N346Q with C-terminal His-tag, sequence (P00740 other isoform, or with tags, fused parts or gaps N346Q N346Q limits assumed): as the sequence (P00740 other isoform, or with tags, fused parts or gaps K301A K301A limits assumed) above, with A301K, N346Q counted along it
human plasma-derived Factor IXa, sequence (P00740 47-191, chain 1 of 2): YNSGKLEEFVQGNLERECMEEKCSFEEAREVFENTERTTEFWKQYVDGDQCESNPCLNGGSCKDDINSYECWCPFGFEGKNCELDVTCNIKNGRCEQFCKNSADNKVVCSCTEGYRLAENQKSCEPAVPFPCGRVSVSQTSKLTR
human plasma-derived Factor IXa, sequence (P00740 227-461, chain 2 of 2): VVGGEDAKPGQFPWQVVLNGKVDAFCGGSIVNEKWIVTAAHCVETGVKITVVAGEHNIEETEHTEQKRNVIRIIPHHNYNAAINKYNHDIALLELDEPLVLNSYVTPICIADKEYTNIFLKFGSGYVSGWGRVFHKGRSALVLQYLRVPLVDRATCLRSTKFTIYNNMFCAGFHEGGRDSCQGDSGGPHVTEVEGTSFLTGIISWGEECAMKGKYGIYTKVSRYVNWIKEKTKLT
FIX S339L with C-terminal His-tag, sequence (P00740 other isoform, or with tags, fused parts or gaps S339L S339L limits assumed): as the sequence (P00740 other isoform, or with tags, fused parts or gaps K301A K301A limits assumed) above, with A301K, S339L counted along it
T1 sequence (P00740 other isoform, or with tags, fused parts or gaps limits assumed): as the sequence (P00740 other isoform, or with tags, fused parts or gaps K301A K301A limits assumed) above, with A301K counted along it
FIX T343I with C-terminal His-tag, sequence (P00740 other isoform, or with tags, fused parts or gaps T343I T343I limits assumed): as the sequence (P00740 other isoform, or with tags, fused parts or gaps K301A K301A limits assumed) above, with A301K, T343I counted along it
FIX T343A with C-terminal His-tag, sequence (P00740 other isoform, or with tags, fused parts or gaps T343A T343A limits assumed): as the sequence (P00740 other isoform, or with tags, fused parts or gaps K301A K301A limits assumed) above, with A301K, T343A counted along it
FIX D332S with C-terminal His-tag, sequence (P00740 other isoform, or with tags, fused parts or gaps D332S D332S limits assumed): as the sequence (P00740 other isoform, or with tags, fused parts or gaps K301A K301A limits assumed) above, with A301K, D332S counted along it

| Binder | Stimulation Index, FXa generation assay, 3600 nM OA antibody [1] | Binding (%) relative to wild-type FIX [2] | Binding (%) relative to wild-type FIX [3] | Binding (%) relative to wild-type FIX [4] | Binding (%) relative to wild-type FIX [5] | Binding (%) relative to wild-type FIX [6] | Binding (%) relative to wild-type FIX [7] | Binding (%) relative to wild-type FIX [8] | Binding (%) relative to wild-type FIX [9] | Binding (%) relative to wild-type FIX [10] | Binding (%) relative to wild-type FIX [11] | Binding (%) relative to wild-type FIX [12] | Binding (%) relative to wild-type FIX [13] | Binding (%) relative to wild-type FIX [14] | Binding (%) relative to wild-type FIX [15] | Binding (%) relative to wild-type FIX [16] | Binding (%) relative to wild-type FIX [17] | Binding (%) relative to wild-type FIX [18] | Stimulation Index, FXa generation assay, 2400 nM OA antibody [1] |
| --- | --- | --- | --- | --- | --- | --- | --- | --- | --- | --- | --- | --- | --- | --- | --- | --- | --- | --- | --- |
| one-armed (OA) mAb01-9994 (antibody, V domains shown, also called OA variant of mAb01-9994) VH: EVQLVESGGGLVQPGRSLRLSCAASGFTFHDYAMHWVRQVPGKGLEWVSGISWKGDIGGYVDSVKGRFTISRDNEKNSLYLQMNSLRAEDTALYYCVKSYGSGSFYNAFDSWGQGTLVTVSS VL: DIQMTQSPSTLSASVGDRVTITCRASQSISSWLAWYQQKPGKAPKFLIYKASRLDRGTPSRFSGSGSGTEFSLTISSLQPDDFATYYCLEYSSYIRTFGQGTKVEIK | 10600 fold | 100% | 58% | 55% | 3% | 89% | 92% | 18% | 62% | 41% | 38% | 0% | 38% | 46% | 16% | 41% | 101% | 43% | – |
| one-armed (OA) mAb01-9985 (antibody, V domains shown, also called OA variant of mAb01-9985) VH: EVQLVESGGGLVQPGRSLRLSCAASGFTFHDYAMHWVRQVPGKGLEWVSGISWRGDIGGYVKSVKGRFTISRDNAKNSLYLQMNSLRAEDTALYYCVKSYGSGSFYNAFDSWGQGTLVTVSS VL: DIQMTQSPSTLSASVGDRVTITCRASQSISSWLAWYQQKPGKAPKFLIYKASKLERGTPSRFSGSGSGTEFSLTISSLQPDDFATYYCLEYSSYIRTFGQGTKVEIK | – | 100% | 86% | 73% | 10% | 94% | 100% | 30% | 84% | 59% | 60% | 8% | 61% | 66% | 29% | 59% | 93% | 64% | 13700 fold |
